Measured values: patent publication US20180244730A1 (OXFORD UNIVERSITY INNOVATION, published 2018)

B1: SnoopCatcher (designed binder)
chain: MGSSHHHHHHSSGLVPRGSHMKPLRGAVFSLQKQHPDYPDIYGAIDQNGTYQNVRTGEDGKLTFKNLSDGKYRLFENSEPAGYKPVQNKPIVAFQIVNGEVRDVTSIVPQDIPATYEFTNGKHYITNEPIPPK
notes: also called SnoopCatcher fused to a His-Tag

Key:
SnoopTag-MBP [1] = assay: mixing, SDS-PAGE with Coomassie staining (covalent isopeptide adduct)
SnoopCatcher [2] = molecular target: B1; assay: electrospray ionization mass spectrometry
SpyCatcher = molecular target: T1, SpyCatcher; assay: mixing, SDS-PAGE with Coomassie staining
T1 construct: also called pDEST14-SpyCatcher (GenBank JQ478411, Addgene plasmid ID 35044)

SnoopTag-MBP [3] = assay: mixing, SDS-PAGE with Coomassie staining
SnoopCatcher [4] = molecular target: B1; assay: mixing, SDS-PAGE with Coomassie staining

T1 sequence (chain, as listed by the source): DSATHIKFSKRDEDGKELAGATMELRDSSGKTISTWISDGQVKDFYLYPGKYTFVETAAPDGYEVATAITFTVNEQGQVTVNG

B1
binding result (SnoopTag-MBP [1]): binds

KLGDIEFIKVNK [synthetic SnoopTag peptide]
binding result (SnoopCatcher [2]): binds

B2: RrgACatcher (designed binder)
chain: KLGDIEFIKVNKNDKKPLRGAVFSLQKQHPDYPDIYGAIDQNGTYQNVRTGEDGKLTFKNLSDGKYRLFENSEPAGYKPVQNKPIVAFQIVNGEVRDVTSIVPQ
binding result (SpyCatcher): no binding
binding result (SnoopTag-MBP [3]): no binding
binding result (SnoopCatcher [4]): no binding
